The values below are quoted from earlier work in PMC5325457.

In this series the target is Mms2 (Homo sapiens) (UniProt Q15819).
Chain of UniProt Q15819 (Q15819 2-145): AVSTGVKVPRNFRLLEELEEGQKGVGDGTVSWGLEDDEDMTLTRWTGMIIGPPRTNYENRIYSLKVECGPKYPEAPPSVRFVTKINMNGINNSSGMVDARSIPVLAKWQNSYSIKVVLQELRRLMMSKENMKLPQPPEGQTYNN

For the substance Ubc13 (from UniProt P61088), the Kd (as a rule, the free concentration of one partner at which half of the binding sites on the other are occupied at equilibrium, for simple one-to-one binding) is 49 nM.
